Data as given in the DeepSol protein solubility set.

Test: soluble on expression in E. coli; label from the status in PepcDB or PDB records

Row | Sequence | soluble on expression in E. coli
1 | MGSDKIHHHHHHMAMDRVTKQLTVSKLLSLANFIPKDSQKILFYSTPDVSDNALALFKYISEKTDDYELAWLLNNPNSPSVKTLKEKYPEVKTIYLYSLEGLKELLRSKFVVLTDVLPLTPHRGQKIIQLWHGLPGKKTGYEHPLNVKDLYLYMDKWTTDFVTTSELVVGAFVRQFMINPRKFRILGQPRNDGLFDNLKDAKNILSSILGRDVEDYDHLILYAPTYRYTSYMKDFQASVNVVKTLFHHKFLEFLKEENILLVIKPHKLVADVIKPEIKENSNVILLTDEHLQSRLITINDVMGAFDILITDYSSIFEDYILLERPILFYLPDREALERKSGFLLPYEFFAPGRKPETLEGLIHALKIYMEDPEVDSEWRKTVKNLLYEVGKDNKSSERIYNLIIKQK | not soluble
2 | AHHHHHHGSKIKVGINGYGTIGKRVAYAVTKQDDMELIGVTKTKPDFEAYRAKELGIPVYAASEEFLPRFEKAGFEVEGTLNDLLEKVDIIVDATPGGMGEKNKQLYEKAGVKAIFQGGEKAEVAQVSFVAQANYEAALGKDYVRVVSCNTTGLVRTLNAIKDYVDYVYAVMIRRAADPNDIKRGPINAIKPSVTIPSHHGPDVQTVIPINIETSAFVVPTTIMHVHSIMVELKKPLTREDVIDIFENTTRVLLFEKEKGFESTAQLIEFARDLHREWNNLYEIAVWKESINVKGNRLFYIQAVHQESDVIPENIDAIRAMFEIAEKWESIKKTNKSLGILK | soluble
3 | MTSRWGKYLLSGIMIAVLAGCQSRPTDRGQQYKDGRLEQSLELVNEPNAAGKPVNAKDYSDQVKVINQSSPGLYNRNSDTFNAVQNWMLAGADTSKLSLFGLNAYQMEGVDNFGNVQFTGYYTPVLQARYTPQGEFRHPLYRMPAKGKRRLPDRAAIYAGALDNRNLIIAYTNSLVDNFMMEVQGSGYVDYGDGRPLTFFGYAGKNGHAYRSIGKVLIDRGEVARADMSMQAIRQWAENHSEAEVRELLEQNPSFVFFKPVMYAPVKGASAVPLIAKASVASDKSLIPPGTTLLAEVPLLDDQGKFTGKYQMRLMVALDVGGAIKGQHFDIYQGIGHEAGQAAGFYNHYGRVWVLKNAQSSGPLFTAYKGGTQSEPTSNDSSLLVNNQDR | not soluble
4 | MAHHHHHHMSFVKGAIHVSILNNYMDFYKESTVDKIETSFSIRNNNESNTKNNEKRKSSLCIMNDEEKMKNKISKCIKNNNLYKNKKKRRKEKNIISNKSRSKKFLKFNIKGKDKKNNINSNIYNNANNNKLKIKNKNNNNNNNNNKINSCCRNVYKGSTNKRNSKLLLNGEIKHDEIFHTNIDNSFICMNKNDMNLIRKCKENNHPIKQMNTKIKKKKYNKKNVLISKQINKEIQMLKSNNSYIMYHMNEKRNIEKEKKKKKCKKIVKSILYNRKRSHYYISNFLKTCMKIKNNKIQKKLKKYVYLKDIYSTINMSNKQTCNNLNEQNKSQFFFDDLQKVRQVNKCDNKLYKMNFKSLKHQTNGKKNNIKENDNNNNFYNEDNSIAEILSDDYIILNKNKSNKMENKIYNNVINHRHSSEDIYLNHSKSKENNNNLVNSYVMKENNMEDKELMNDNEKKEGQLILKNVNKKIQLCNESKLDNEKKNKGDNIKLGNTKNKDNIYKYLNVLSINKLIKGETYLEKRTKKSDNSNEHKNDNIYDDKKIKYKSVENDTSELLDKNIDNSNFFDEANEKKKKLKKKKMNTCVNKNVMDYVNEDEYYLEERVKKKRKKKKKDNKKYNIKNKNESEEIFEDVSSTNSCIDSNNSGTFIYDEEICKHVINKGNIISNNNNNNNNNNYIVLTGNEKNMNAEEISEYITKQGLNFKEYLIWKEIKIKESKELIHLNLDSSFSVSKGAGLYNYGQNICFFNSIIQAIIRIPYICKDLLNKLHSINCEKRKKKTFCFYCLFEQFACNIISKKSVIKNVLIPYIKKYMCNSYHIGYQEDVHEYLRYFLNSLEKTSFFSSIYIQKMFTGVSKNVTICMNCNNVSLKYEQYYELSLDISSSNNLEDALKHFLSKEMLAGENGYYCEKCKKKKKATKQCVINKLPRVLTIQIKRFFMNSNFDIVKNHKNISYPLYLDMKYYVNNYDLFENNFNNNVISLYEKMNKTNCVGSTTNGPNKKNNKIYHQNNSCNIKSNNHFVHTNYNNKGQNILTPEKLTQQNIIPEHSFSKNKVNYENDFFLNNMNKKRECSNDDIISNINKNENIFFNNKDKEYMINEKYMNTNQCIKLRGGNHNINMHVLKIIENILIDLKESMCQKQIQNKLTSKVLRNMIREKKKLLIKQLKKIKFSKLYKDISLRISKDIDMLYYYFKVNRENDQFKKIIYKYKIDYYEYYVGSTNINADFINYNHNFDSPAKDHHNNNPHQNNDENNNRHSNVNFKEGNAKNSNKKNNYFSFELTGLIKHIGSGTDYGHYIALTKSNNNIYLQCDDNHISYINKKDILNCVKNAYVFIYTCINPEFIDFYNKYVDVLEKKNFDINLPVFEKRVKFKERITMPKEKFINKSLCY | not soluble
5 | MNMAERAEATKSWSCEPLSGKTLEEIVQNAENAADLVAYIRKPEVDLDFRLKFIAEHEEFFNEQLSDRNSRIRTCHNLSDKGIRGDTVFVFVPGLAGNLEQFEPLLELVDSDQKAFLTLDLPGFGHSSEWSDYPMLKVVELIFVLVCDVLRKWSTAVPNNDNVNPFNGHKIVLVGHSMGCFLACHLYEQHMADTKAVQTLVLLTPPKAHIEQLSKDKHIIQWALYGVFKLPWLFDVYRNKFDQVKGLQSSGIKQYFYQQGDDVKLKYRKFWQFKNNISNKSRTIIGYLLGWETVDWVKFNGVLTQTDMKQKIIIFGAEKDPIAPIENLEFYKQTINKECLRKVIILPDCSHNLCFDRPELVCENFQREVIDNSKL | soluble
6 | MDDATEQEVFNRMQMTQFEEKRFELRETCPKCHQILSSELSRLWHQFVHMDAYNGFLDGKFQIQLPDFEFVRSNVIPCPFSTCSLLFLDLIDARFHYLLEHQSCQLFCCGVRFSDYKTALEHLQGTGSVETEAWDQQKHFLKPVYICNCCNRTWSSRSEYVAHLHGRDHMCPDPVCKYIFETNEKCIRHFFEQHYKHLFLDSRHLLLNYKDHMCVPHVNADFGTTRGFRATWQARIVNFLIEKS | not soluble
7 | MAHHHHHHMLQWEWPTSLCAERRELIRAAVERAIRNSMAEGSDGQIRGTVNVDELNLGSNPPEVTLSGIRMLSAERTVIMVKVRYTGDFFIRLSGLEVNLDMVGSGAEEADNNFALPFFCPFEMTLRDILIDGMVAIEILQELEENVQWGKCADVPVAPLATTVRSRKNTNGMRPPCRAGTPSTRHRSGYGVLLGGGGRGAMRLPGVLDSIDGSLSSVDMEGASEGHPRHSLRVRNVSPPFFDILSTKVLVKQRVVKMQLFGDPLKSFRVLSNFGSVQGADCKAEQTIRKLIKPAIEQLIEEGIIFNI | not soluble
8 | MTASHGQAAAIPTVTLNDDNTLPVVGIGVGELSDSEAERSVSAALEAGYRLIDTAAAYGNEAAVGRAIAASGIPRDEIYVTTKLATPDQGFTSSQAAARASLERLGLDYVDLYLIHWPGGDTSKYVDSWGGLMKVKEDGIARSIGVCNFGAEDLETIVSLTYFTPAVNQIELHPLLNQAALREVNAGYNIVTEAYGPLGVGRLLDHPAVTAIAEAHGRTAAQVLLRWSIQLGNVVISRSANPERIASNLDVFGFELTADEMETLNGLDDGTRFRPDPATYTGS | soluble
9 | MGSDKIHHHHHHMRSSSKCSSVRFQFFVVELFMTTTQSAGEITGNVLFYNAPEPLNREQHAKLALVHKDKPYAFAAAGTAVPLTVSEFAPAALTFPVIFAGDDRVPLAVMGLNQQENLFIGADGSIEANVYIPAYIRRYPFVLANDDTQDRLIVCIDRGSDLLSEQGQTPLFDAKGEPTEYTQNCIKFCDDFEVERRRTDSFVQILKDNDLFELKKATFQPTDEVGAPVGEPVTVAEYFGVSEEKLNGLSAEKLKELQENGALAQIYAHLVSLLGWDRLINKTMMKQAEAANLN | not soluble
10 | MGSDKIHHHHHHMNYPQEKIKPYSNDGKKSEQVEQMFDNIAPAYDQLNHTLSLGIDRSWRRKAINWLKPFRPQQIMDVATGTGDFAILACHELQPEQLIGTDISEGMMNVGREKVKKEGLSEKISFAREDCTSLSFADNRFDAITVAFGIRNFEDLDKGLSEMYRVLKTGGHLVILELTTPDRFPMKQMFTIYSKIVIPTLGKLLSKDNSAYSYLPQTIKAFPQGEVMKNVISRVGFSQVQFRRLTFGICTLYTATK | not soluble
11 | MGSDKIHHHHHHMVGTDHVVHSLVACALCFKAVTLPLSSQTQILSGWGRTMPVQAKVVQPASVQQVQELVRQASPASLIARGLGRSYGDAAQLDGASAVEMGAFDQINLDLVKGSVTAGAGVSLNQLLRVIVPAGFFLPVTPGTRNVTIGGAIAADVHGKNHHVDGSFGNHLQRLLLVDGRGELRELTPSGKSSVDEIEQFWATVGGMGLTGIIVEATFSLIPISSSLISVNTARYHNLDELMAAMVASDSNYRYSVAWIDSLNAKGRGVLSCGDHAMAEQLPTSQQADPLVYDPKPLASAPTFLPVGLLNKLTVRAFNEAWFRKAPKQRLGELQTIGAYFHPLDGVQDWNRIYGPAGFLQYQFVVPDNASHLVLYTLEALRKIGTSSFLTVLKRFGPSNPGHLSFPMQGWTLAVDLPAAVPGLFEVLDHLDEHIAAENGRLYLAKDSRQSATILRRTYPRLEEWQQAREKLDPSKVFSSDMAIRTGL | not soluble
12 | MGSDKIHHHHHHMNAQIKIINTANGYMALCQDTPEDITPAWFSVDFWREKSAVVGSSKGRYTTWFVAFEHSHWVLRHYWRGGMMEKFSKDAYFYTGLENTRAMGELRLLDALYREQFAVPKPIAANIVRDGLFYRADIIIERVDGAEDLVAKLTKGTMTQAQWHALGATIAQFHRRGVYHADLNAKNILWQPQQTDSAQERFYLIDFDRGELKTPNAKWQKANLDRLLRSFNKEQGKQPTLAFTPANWAALLEGYHAVVPKV | not soluble
13 | MSLLEVKNLRIEYPSRHGVHAAVKSLTLDIQRGEIVGVVGESGAGKSTVGNAVIDLLSPPGTIAGGEVYLNGEKISGLSPQAMREVRGSKIGFIFQDPMTSLNPLFTVEHQLTETIHANMQVSAEEAYQRALSLMKQVGIPQPENRLKQYPHQFSGGMRQRVVIAIALAGEPDLIIADEPTTALDVSIQDQILNLIRELCKKNNVGCMLVTHDMGVVSNVTDRVAVMYRGDLVEFGPTAKVLGTPEHPYTRSLISAVPRSDRKLDRFPLVSYIEEAKELKPLDVKSHWLGQSQDHRKYTGPLLKVENVNLRFVTKDSLFESRREYVQASNNVSFAVHEGETFGLVGESGSGKSTIARVIAGLYQPNAGRVTFEGIDLTALKSEHERRPLRRQMQMVFQNPYTSMNPRMKIFDIIAEPIRFHKLTRSESETRQIVNDLLEHVGLGKMAGLKYPHEFSGGQRQRISIARALATRPRLLICDEPTSALDVSVQAQILNLLKDLQDELNLTMLFISHDLPVIRQMCDRVGVMQMGTLLEVAPTEQLFTDPQHEYSKKLISLMPEFTGLRESTTAA | not soluble
14 | MRITLVTDSTSDLPQDLRGRLGVRVVPLYVNLSGAIYRDWEEITPTEIFQKVREGAAFPTTSQPSPEDFARVYREALEEADHVLSLHISGKLSGTVQSAELAAQEFPGRVTVVDTQAASLGVGMMVLRAKELLEEGQSLEAVLAELERLRRDHFVRFSVATLEFLKRGGRIGGAQAFLGTLLNLKPVLTLKEGRVEAAGRARGEKKAREEILKAFRAWAEGRKRIRAYFLYSGDEDAVAALRQEVLASGLPVEEALVNELGAVIASHTGPGTYGFYAYSL | soluble
15 | MAHHHHHHMENLYFQGMSSFLPEGGCYELLTVIGKGFEDLMTVNLARYKPTGEYVTVRRINLEACSNEMVTFLQGELHVSKLFNHPNIVPYRATFIADNELWVVTSFMAYGSAKDLICTHFMDGMNELAIAYILQGVLKALDYIHHMGYVHRSVKASHILISVDGKVYLSGLRSNLSMISHGQRQRVVHDFPKYSVKVLPWLSPEVLQQNLQGYDAKSDIYSVGITACELANGHVPFKDMPATQMLLEKLNGTVPCLLDTSTIPAEELTMSPSRSVANSGLSDSLTTSTPRPSNGDSPSHPYHRTFSPHFHHFVEQCLQRNPDARPSASTLLNHSFFKQIKRRASEALPELLRPVTPITNFEGSQSQDHSGIFGLVTNLEELEVDDWEF | soluble
16 | DRPFKVGDWIRSPDRQIEGTVERIGWRMTSIRTFDKRPLYVPNSVFSNIVVENPSRMLNRRIYEVVGLRYDDADKVPEIITAVREMLKNHKDIDTRQT | not soluble
